# Source: patent US6410226
# B1: hsREC2 (human REC2, ATP-dependent homologous pairing protein) (protein)
# chain: MGSKKLKRVGLSQELCDRLSRHQILTCQDFLCLSPLELMKVTGLSYRGVHELLCMVSRACAPKMQTAYGIKAQRSADFSPAFLSTTLSALDEALHGGVACGSLTEITGPPGCGKTQFCIMMSILATLPTNMGGLEGAVVYIDTESAFSAERLVEIAESRFPRYFNTEEKLLLTSSKVHLYRELTCDEVLQRIESLEEEIISKGIKLVILDSVASVVRKEFDAQLQGNLKERNKFLAREASSLKYLAEEFSIPVILTNQITTHLSGALASQADLVSPADDLSLSEGTSGSSCVIAALGNTWSHSVNTRLILQYLDSERRQILIAKSPLAPFTSFVYTIKEEGLVLQAYGNS
protein,measurement,value
B1,Hill coefficient of ATP hydrolysis (ATPase activity) at ATP concentrations of <100 µM,the Hill coefficient (1.8)
